# Target: SARS-CoV-2 wild-type (WT) spike protein trimer (SARS-CoV-2) (UniProt P0DTC2)
# Experiment: SPR
substance,measurement,value
LCB1 mini-binder protein (designed binder),Kd,1.22 nM

# Reference: doi:10.1101/2023.09.18.558353
